This assay deals with T1, P1 adhesin ectodomain (residues Thr29-Asp1521), Mycoplasma pneumoniae (M. pneumoniae, UniProt P11311).
T1 construct: Adhesin P1 of Mycoplasma pneumoniae, gene MPN_141 (synthetic clone, Genscript), residues 29-1521; also called P1 (29-1521); whole P1 ectodomain; source: E. coli B834 (DE3), purified (HisTrap, Superdex 200)
In words: SEC-MALS; proteins mixed in solution (Fab and P1 ectodomain in equimolecular amounts; Mab with C-domain constructs); Superdex 200 10/300 GL with MALS and refractive index detectors. To be noted: both partners purified.

This note sets out measurements from paper PMC11984735, “Dynamics of the adhesion complex of the human pathogens Mycoplasma pneumoniae and Mycoplasma genitalium” (PLOS Pathogens, 2025).

T1 sequence (P11311 29-1521): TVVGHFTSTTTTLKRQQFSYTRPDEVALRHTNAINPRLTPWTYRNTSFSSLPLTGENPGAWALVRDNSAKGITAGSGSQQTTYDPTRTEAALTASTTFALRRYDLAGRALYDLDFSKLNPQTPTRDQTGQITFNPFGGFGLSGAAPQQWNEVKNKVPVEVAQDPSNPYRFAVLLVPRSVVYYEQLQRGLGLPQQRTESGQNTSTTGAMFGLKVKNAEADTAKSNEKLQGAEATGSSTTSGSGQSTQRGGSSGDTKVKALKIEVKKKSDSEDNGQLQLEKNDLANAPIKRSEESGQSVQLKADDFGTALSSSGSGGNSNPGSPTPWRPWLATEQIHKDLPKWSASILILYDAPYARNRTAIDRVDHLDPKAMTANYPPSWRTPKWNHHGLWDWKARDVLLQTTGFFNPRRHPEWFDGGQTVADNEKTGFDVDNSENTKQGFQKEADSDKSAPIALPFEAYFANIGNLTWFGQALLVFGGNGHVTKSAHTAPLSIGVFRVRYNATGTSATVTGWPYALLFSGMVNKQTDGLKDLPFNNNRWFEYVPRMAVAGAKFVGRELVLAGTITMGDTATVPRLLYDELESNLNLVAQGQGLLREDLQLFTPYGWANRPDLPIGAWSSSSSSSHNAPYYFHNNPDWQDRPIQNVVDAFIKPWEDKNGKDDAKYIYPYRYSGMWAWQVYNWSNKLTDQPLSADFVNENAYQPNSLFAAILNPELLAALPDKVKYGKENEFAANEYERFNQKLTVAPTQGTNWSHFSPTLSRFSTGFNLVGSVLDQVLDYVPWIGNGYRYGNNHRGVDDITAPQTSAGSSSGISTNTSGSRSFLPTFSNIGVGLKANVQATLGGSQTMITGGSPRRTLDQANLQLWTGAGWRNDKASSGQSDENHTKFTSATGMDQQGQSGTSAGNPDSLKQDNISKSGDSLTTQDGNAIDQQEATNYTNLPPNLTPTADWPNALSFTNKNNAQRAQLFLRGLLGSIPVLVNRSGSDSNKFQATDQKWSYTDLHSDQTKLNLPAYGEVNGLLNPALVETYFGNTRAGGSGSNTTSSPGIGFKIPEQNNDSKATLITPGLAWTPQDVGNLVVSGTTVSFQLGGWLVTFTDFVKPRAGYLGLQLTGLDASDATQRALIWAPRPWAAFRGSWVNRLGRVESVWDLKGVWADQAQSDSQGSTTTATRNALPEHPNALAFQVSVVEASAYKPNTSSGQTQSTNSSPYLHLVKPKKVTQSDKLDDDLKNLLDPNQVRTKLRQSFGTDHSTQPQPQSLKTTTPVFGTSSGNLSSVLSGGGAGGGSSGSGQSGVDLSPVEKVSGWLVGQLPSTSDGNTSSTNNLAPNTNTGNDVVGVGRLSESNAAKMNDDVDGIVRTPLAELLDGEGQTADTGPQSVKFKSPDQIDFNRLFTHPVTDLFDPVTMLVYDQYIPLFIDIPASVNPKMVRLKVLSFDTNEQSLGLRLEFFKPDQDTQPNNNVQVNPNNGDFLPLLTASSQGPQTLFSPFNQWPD

B1: Fab fragment of monoclonal antibody P1/MCA4, with light chain L1 (Fab, V domains shown)
VH: EVQLQQSGPELVKPGTSMKISCKASGYSFTGYTMNWVKQSHGKSLEWIGLINPYNGGTNYNQKFRGTATLTVDKSSSTAYMELLSLTSEDSAVYYCARSNYAYDLLMDYWGQGTSVTVSS
VL: DVLMTQTPLSLPVSLGDQASISCRFSQTIVHSNGATYLEWYLQRPGQSPKLLIYKVSNRFSGVPDRFSGSGSGTDFTLKISRVEAEDLGVYYCFQGSHVPWTFGGGTKLEIK
notes: LC600310 by the order of listing; here the papain fragment of the heavy chain; modelled in PDB 8ROR; light chain L1, the one seen in the cryo-EM map; The Fab preparation is a mixture of two Fabs with one heavy chain and two different light chains (roughly 70% for the most abundant); this molecule is the one with L1; also called Fab(P1/MCA4); P1/MCA4 Fab; source: papain digestion of monoclonal …
Regarding B1, the binding result was “binds”.

B2: Fab fragment of monoclonal antibody P1/MCA4, with the second light chain (not L1) (Fab, V domains shown)
VH: EVQLQQSGPELVKPGTSMKISCKASGYSFTGYTMNWVKQSHGKSLEWIGLINPYNGGTNYNQKFRGTATLTVDKSSSTAYMELLSLTSEDSAVYYCARSNYAYDLLMDYWGQGTSVTVSS
VL: DVVMTQTPLTLSVTIGQPASISCKSSQSLLDSDGKTYLNCFLQRPGQSPNRLIYLVSRLDSGVPDRFTGSGSGTDFTLKISRVEAEDLGVYYCCQVTQWTFGGGTKLEIK
notes: LC600310 by the order of listing; papain fragment; the second of the two light chains found in P1/MCA4 (not L1); Present in the same Fab preparation as m1; also called Fab(P1/MCA4); P1/MCA4 Fab; source: papain digestion of monoclonal antibody P1/MCA4 (hybridoma), purified (HiTrap Protein G, Superdex 75)
B2: the binding result was “binds”.
